Target: HIV-1 envelope glycoprotein (Env) of the Tier 1B subtype B strain BaL.01, cell surface-expressed (HIV-1 (subtype B, strain BaL.01))

Q: How did the sCD4 concentration at the peak of the basal epitope exposure curve of V3 crown mAb 1-79 (antibody staining of Env-expressing cells, flow cytometry, increasing sCD4) turn out when “recombinant two-domain sCD4 (sCD4-183_avi_his.bio) (domain or fragment)” was run?
A: 5 µM

— paper PMC6351000
